B1: PhCGT2: C-glycosyltransferase from moso bamboo, SEQ ID NO: 4 (protein, listed as Phyllostachys edulis)
chain: MASRAMPSSSDRTGGAPRVVLLPSAGMGHLVPFGRLAVALSSGHACDVSVVTVLPTVSSAESKHLQGLFDAFPAVRRLDLHLAPFDASEFSDADPFYVRYEAVRRSAPLLGPLLADADASALVADIALASVVIPVAKELLIPCYIFFTASATMFSLLAYFPTYLHSNAGHSIGDVDVPGVYRIPMSSIPQALHDPNNLFTQQFVANGRSLAEADGLLVNTFDAFEPEAVTALRHGTVAPGFPPVFALGPLSPVGFPAGEAARESGNYTTWLDAQPARSVVYVSFGSRKALLRDQLSELAAGLEASGCRFLWVVKGTVVDRDDDRELRELLGEVFLQRVNGRALVTKAWVEQEEVLKHPAVGLFISHCGWNSVTEATVSGVPVLAWPRFADQRVSAGVVARRGLGVWVERWSWEGEERVVTGDEIAEKVKSVLADETLRKNSTMVREAAAAAVATGGTSYRSLAKFVRRCST
B2: OsCGT: C-glycosyltransferase from Japonica rice, SEQ ID NO: 19 (protein)
chain: MPSSGDAAGRRPHVVLIPSAGMGHLVPFGRLAVALSSGHGCDVSLVTVLPTVSTAESKHLDALFDAFPAVRRLDFELAPFDASEFPSADPFFLRFEAMRRSAPLLGPLLTGAGASALATDIALTSVVIPVAKEQGLPCHILFTASAAMLSLCAYFPTYLDANAGDGGGVGDVDIPGVYRIPKASIPQALHDPNHLFTRQFVANGRSLTSAAGILVNTFDALEPEAVAALQQGKVASGFPPVFAVGPLLPASNQAKDPQANYMEWLDAQPARSVVYVSFGSRKAISGEQLRELAAGLETSGHRFLWVVKSTVVDRDDAAELGELLGEGFLKRVEKRGLVTKAWVDQEEVLKHESVALFVSHCGWNSVTEAAASGVPVLALPRFGDQRVNSGVVARAGLGVWADTWSWEGEAGVIGAEEISEKVKAAMADEALRRKAASLAKAAAKAVAGGGSSHRCLVEFARLCQGGTCRTN
modifications: Oryza Sativa japonica
B3: SiCGT2: C-glycosyltransferase from millet, SEQ ID NO: 18 (protein, listed as Setaria italica)
chain: MSSPPPPNSTSDDCQGTAATPHIVLFPSAGMGHLVPFTRLAVALSAGHCCDVSLVTALPTVSSAESCHIAALFAAFPAVRRLDLRLAPLDASSEFPGADPFYVRYEALRRSTPLLLGPLLAGASASALVADIALASVAIPVARELRVPCYVFFTASATMLSFKAYFPTYLDANGGAGHSVGDVDVPGVCRVPRSSIPQALHDPDDIFTRQFVANGRALVAADGLLVNAFEAMEPEAVAALLGGSVVASLPPVFAVGPLMPLNLREAAEEQGNYRAWLDAQPPRSVVYVSFGSRKALARDQIRELAAWLEACGHRFLWVVKGAVVDRDDACELSDLLGEGFQRRVEGRGLVTKSWVEQDEVLRHPAVGLFVSHCGWNSVTEAAANGVPVLAWPRFADQRVNARVVARAGFGVWVERWSWEGEEAVVGAEEIAEQVVAAMGDQAVAEKAASVRDEAARAVADGGTSQQSLAEFVRRCRGGLAGPGTDLGRTWTARG
B4: PpCGT1: C-glycosyltransferase from high knot bamboo, SEQ ID NO: 3 (protein, listed as Phyllostachys prominens)
chain: MPTSGSRTGGRPHVILLPSAGMGHLVPFSRLAVALSSGHGCDVSVVAVLPTVSAAESRHLQGLLDASPAVRRLDLHLAPFDESEFPGADPFFLRFEAMRRSAPLLGPLLADTGESALVTDIALASVVIPVAKEIHLPCYVLFTASAAMLSFCAYFPTYLDTNAGRVVGDVDIPGVYRIPKASIPQALHDRNHLFTRQFVANGQDLAKADGVLVNTFDALELEAVTALRQGSVAAGFPPVFSVGPLVTVNLPAGEAAKESGNDYMYWLDAQPARSVVYVSFGSRKAISRNQVRELAVGLEASGQRFLWVVKSTVVDRDDSAELSELLDEGFLERVQGRGLVTKAWVEQEEVLKHESIGLFISHCGWNSVTEAAASGVPVLAWPRFGDQRVNAGVVARGGLGVWVERWSWEGEEGVVSGEEIAEKVKAVMADETVRKKAASVGEAAVKEFADGGTSYRSLTEFVRRCRDLAVLD
B5: SbCGT1: C-glycosyltransferase from Sorghum, SEQ ID NO: 6 (protein)
chain: MAPPATKSLGELDGGARPHVMFIPSAGMGHLLPFFRVIAALAAHDVVDISVVTVLPTVSAAEADHFASLFAALPRVSRVDFHLLPFDASSEFPGHDPFLLRWEALRRSAHLFRPLIAGAAGPRVSAVVTDVTLTSHVIPIAKELGVQCHVLFVSCATMLSLAAYTPVHLDKKNKGEHGPGVGVGVGVGDVDIPGVRRIPQSYLPQPLLDLNKLFTKQFIDNGREIINADGFLVNTFDALEPVALAALRDGKVVAGFPPVYAIGPLRSKEEEATTGSPPVAWLDEQPARSVVYVAFGNRNAVSLEQIREIAAGLEASGCRFLWVLKTTTVDRDDTAELTDDVLGEGFLERVQGRGLVTKAWVDQEAVLKHASVGLFLSHSGWNSVTEAAAAGVPLLAWPRGGDHRVNATVVVSGGVGVWMEQWSWDGEDWLVTGEEIGKKVKEVMSDAAVRARATRTGEEAAKAVAEGGTSYRSMQKFISSLKAHCSP
modifications: Sorghum bicolor
B6: OsCGT2: C-glycosyltransferase from Japonica rice, SEQ ID NO: 5 (protein)
chain: MCSAATPNSGDVRATPGSSRPHVVLLPSAGMGHLVPFTRLAAALCSGHGCDVSLVAAVPTVSSAEARHLAAHFTAFPAVRRLELDLASLDVSEFAGADPFYVRYEAIRRSASLLAPLLAGGASAAASALVADIALASVVIPVAKDLRLPCYVFFTASATMFSFLAYLPTYLDANAGGGHAIGDVDVPGVCRVPTSSVPQALHDPDDIFTRQFIANARSLANADGLVVNAFDALEPEAVAALRQGTVAAGLPPVFAVGPLSPAPIPAKDSGSYLPWLDAQPARSVVYVSFGSRKALPRDQLSELAAGLEASGHRFLWVVKGAVVDRDDAGELTDLLGEAFLQRIHGRGLVTMAWVRQEEVLNHPSVGLFISHCGWNSVTEAAASGVPVVAWPRFADQRVNAGVVARAGIGVWVDTWSWEGEDDGVVSAEDIAGKVRSAMADEGVRKAAASVREAAARAVAAGGSSYRSLAELVRRCRDGLVITNGM
modifications: Oryza Sativa japonica
B7: ZmCGT: C-glycosyltransferase from maize, SEQ ID NO: 20 (protein)
chain: MAANGGDHTSARPHVVLLPSAGMGHLVPFARLAVALSEGHGCNVSVAAVQPTVSSAESRLLDALFVAAAPAVRRLDFRLAPFDESEFPGADPFFLRFEATRRSAPLLGPLLDAAEASALVTDIVLASVALPVARERGVPCYVLFTSSAAMLSLCAYFPAYLDAHAAAGSVGVGVGNVDIPGVFRIPKSSVPQALHDPDHLFTQQFVANGRCLVACDGILVNTFDAFEPDAVTALRQGSITVSGGFPPVFTVGPMLPVRFQAEETADYMRWLSAQPPRSVVYVSFGSRKAIPRDQLRELAAGLEASGKRFLWVVKSTIVDRDDTADLGGLLGDGFLERVQGRAFVTMGWVEQEEILQHGSVGLFISHCGWNSLTEAAAFGVPVLAWPRFGDQRVNAALVARSGLGAWEEGWTWDGEEGLTTRKEVAKKIKGMMGYDAVAEKAAKVGDAAAAAIAKCGTSYQSLEEFVQRCRDAERK
modifications: Zea mays

The data set in a line: In vitro functional identification of C-glycosyltransferases by HPLC, phloretin as glycosyl receptor. Type of data set: biochemical. To be noted: 0.1 mM phloretin, 0.3 mM UDP glucose, crude enzyme, 37° C., 2 h, HPLC (FIG. 1A). On the procedure:
The recombinant plasmid was transformed into competent cells of Escherichia coli BL21 (DE3), and cultured overnight at 37° C. in solid LB medium (kanamycin 50 μg/mL). Single colony was transferred to a 2 mL LB liquid medium (containing 50 μg/ml kanamycin) and incubated overnight. The bacterial fluid was transferred to a new 100 ml LB liquid medium with antibiotics and incubated at 37° C. and 250 r/min until OD600 reached 0.5-0.6. The culture was cooled down to 16° C. in a water bath. Then inducer IPTG was added at a final concentration of 0.1 mM. The mixture was cultured at 16° C. for low temperature induction and 180 r/min for 20 h. The BL21(DE3) recombinant strain carrying the pET28a empty plasmid was used as a blank control, and the culture operation was the same as above. The bacteria were harvested by centrifugation (6000 r/min, 5 min), re-suspended in 1 mL of lysis buffer Buffer A (20 mM Tris-HCl, pH 8.0; 100 mM NaCl), and DNase was added to a final concentration of 5 μg/mL, Mg^2+ to a final concentration of 2 mM; protease inhibitor PMSF to a final concentration of 1 mM; the bacteria were incubated on ice for 30 min and then sonicated; refrigerated centrifugation (10,000 rpm, 30 min, 4° C.), filtered through a 0.2 µm filter membrane to obtain the supernatant crude enzyme solution, and added 20% glycerol for cryopreservation (−20° C.).
The in vitro enzyme catalytic assay system is 100 μL. The reaction system includes: 0.1 mM glycosyl receptor (phloretin or 2-hydroxynaringenin), 0.3 mM UDP glucose, 25 μL supernatant crude enzyme solution, and Buffer A is used to make up the volume to 100 μL, and react at 37° C. for 2 h. After the reaction was completed, an equal volume of methanol was added to terminate the reaction, and HPLC was used for product analysis. HPLC detection conditions: chromatographic column: reverse phase C18 column [SilGreen ODS column (ø 4.6×250 mm)], detection wavelength 280 nm; mobile phase: acetonitrile (0.1% formic acid)-water (0.1% formic acid) mixture gradient elution, with increased ratio from 5:95 to 100:0 within 0 to 20 min, and the flow rate was 1 mL/min.
On to B1, for which the “conversion of substrate phloretin to C-glycosylated product (Nothofagin)” value (“conversion of substrate phloretin” for short) is reported as “can convert the substrate phloretin to a product having a shorter retention time”.

Regarding B2, the “5′ C-glycosylation of 3′-glycosylated phloretin giving phloretin-3′,5′-C-diglucoside” value (“5′ C-glycosylation” below) is reported as “can catalyze the glycosylation of the 3′-glycosylated phloretin at the 5′ position” and the “conversion of substrate phloretin” value is “can convert the substrate phloretin to a product having a shorter retention time”.

Turning to B3, the “conversion of substrate phloretin” value is “can convert the substrate phloretin to a product having a shorter retention time”.

Take B4: the “conversion of substrate phloretin” value was “can convert the substrate phloretin to a product having a shorter retention time”.

On to B5, for which the “5′ C-glycosylation” value was “can catalyze the glycosylation of the 3′-glycosylated phloretin at the 5′ position” and the “conversion of substrate phloretin” value is given as “can convert the substrate phloretin to a product having a shorter retention time”.

On to B6, for which the “conversion of substrate phloretin” value is “can convert the substrate phloretin to a product having a shorter retention time”.

For B7, the “5′ C-glycosylation” value is “can catalyze the glycosylation of the 3′-glycosylated phloretin at the 5′ position” and the “conversion of substrate phloretin” value is “can convert the substrate phloretin to a product having a shorter retention time”.

The values above are taken from patent US20230066984A1, “New Carbon Glycoside Glycosyltransferase and Use Thereof” (CAS Center for Excellence in Molecular Plant Sciences, priority 2020, published 2023).
